Key:
AbRibD = molecular target: T1, AbRibD (Acinetobacter baumannii, UniProt D0CB74); assay: X-ray crystallography (cocrystallization), […] A; conditions: 5 mM GMP; crystals at pH 5, 293 K; NADPH-binding site of reductase domain (adenine pocket); second site on surface at occupancy 0.5; authors judge binding not biologically relevant
T1 construct: gene ribD; full length, 362 residues untagged (386 with tag); N-terminal His6-TEV tag (24 extra residues) kept; E. coli BL21(DE3); homodimer; subunit 42038 Da tagged
T1 sequence (D0CB74 1-361): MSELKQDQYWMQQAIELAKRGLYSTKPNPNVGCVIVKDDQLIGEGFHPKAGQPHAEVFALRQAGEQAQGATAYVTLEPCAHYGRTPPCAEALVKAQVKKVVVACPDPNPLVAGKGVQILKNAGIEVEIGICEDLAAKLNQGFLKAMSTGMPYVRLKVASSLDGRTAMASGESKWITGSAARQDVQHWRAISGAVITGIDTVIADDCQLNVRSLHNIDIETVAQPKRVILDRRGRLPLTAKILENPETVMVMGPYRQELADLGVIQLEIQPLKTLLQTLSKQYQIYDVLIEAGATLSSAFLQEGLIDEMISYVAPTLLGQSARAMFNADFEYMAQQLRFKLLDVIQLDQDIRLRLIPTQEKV

[1] = molecular target: Acinetobacter baumannii diaminohydroxyphosphoribosylaminopyrimidine deaminase/5-amino-6-(5-phosphoribosylamino)uracil reductase (RibD) (Acinetobacter baumannii (strain ATCC 19606)); assay: SEC; Superdex 200 26/60, 50 mM Tris-HCl, 250 mM NaCl pH 7.5; both Ni2+ column peaks ran as homogeneous samples of approximate mass 58 kDa (tagged subunit 42 038 Da)
[2] = molecular target: Acinetobacter baumannii diaminohydroxyphosphoribosylaminopyrimidine deaminase/5-amino-6-(5-phosphoribosylamino)uracil reductase (RibD) (Acinetobacter baumannii (strain ATCC 19606)); assay: crystal structure; form I (apo, C222(1), 2.2 A, two subunits in the asymmetric unit related by a noncrystallographic twofold) and form II (grown with 5 mM GMP, P4(3)2(1)2, 2.0 A, same dimer generated by a crystallographic twofold); crystals grown at 293 K

| stoichiometry N [1] | stoichiometry N [2] | Compound | X-ray crystallography (cocrystallization), 1.99 A (AbRibD) |
| --- | --- | --- | --- |
|  |  | Nc1nc2c(ncn2[C@@H]2O[C@H](COP(=O)(O)O)[C@@H](O)[C@H]2O)c(=O)[nH]1 [GMP] | a GMP molecule was observed in the NADPH-binding site of the reductase domain |
| 2 | 2 | Acinetobacter baumannii diaminohydroxyphosphoribosylaminopyrimidine deaminase/5-amino-6-(5-phosphoribosylamino)uracil reductase (RibD) (enzyme) |  |

Source: PMC3668577, “Structure of diaminohydroxyphosphoribosylaminopyrimidine deaminase/5-amino-6-(5-phosphoribosylamino)uracil reductase from Acinetobacter baumannii” (Acta Crystallographica Section F: Structural Biology and …, 2013)
